Values quoted from earlier work in publication PMC10839879.

Target: RNH1 (Homo sapiens) (UniProt P13489)
UniProt P13489, sequence (P13489 2-461): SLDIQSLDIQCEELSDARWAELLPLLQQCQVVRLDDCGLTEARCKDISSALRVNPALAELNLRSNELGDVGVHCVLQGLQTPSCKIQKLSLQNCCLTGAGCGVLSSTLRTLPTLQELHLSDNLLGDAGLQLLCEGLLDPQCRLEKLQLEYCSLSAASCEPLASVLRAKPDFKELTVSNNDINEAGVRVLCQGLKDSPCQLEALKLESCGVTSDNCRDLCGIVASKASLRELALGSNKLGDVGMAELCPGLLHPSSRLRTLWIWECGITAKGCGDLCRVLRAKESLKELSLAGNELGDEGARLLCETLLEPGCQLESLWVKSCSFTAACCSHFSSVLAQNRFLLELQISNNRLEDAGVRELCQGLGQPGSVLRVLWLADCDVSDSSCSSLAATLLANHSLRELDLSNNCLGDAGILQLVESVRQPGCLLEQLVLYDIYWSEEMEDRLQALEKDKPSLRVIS

angiogenin (from UniProt P03950)
Kd: 0.001 pM
